This note sets out measurements from patent publication US20200140532A1.

What all share (test): periplasmic extract ELISA, control
A general note: ELISA stands for enzyme-linked immunosorbent assay.

In assay [1] the target is recombinant dog Aggrecan G1-IGD-G2 (dog) (UniProt Q28343).
Assay [2] deals with recombinant human Aggrecan G1-IGD-G2 (human) (UniProt P16112).
Assay [3] has as its target recombinant bovine Aggrecan G1-IGD-G2 (bovine) (UniProt P13608).
The target in assay [4] is recombinant cynomolgus Aggrecan G1-IGD-G2 (cynomolgus).
Assay [5] deals with recombinant rat Aggrecan G1-IGD-G2 (rat) (UniProt P07897).

“And” between values parts separate entries of the source, which are not always exact repeats. Identical values can stand only once.

cAbLys3 (VHH): the OD 450 nm in assay [1] was 0.06 OD 450 nm; in assay [2], 0.05 OD 450 nm; in assay [3], 0.05 OD 450 nm and 0.06 OD 450 nm; in assay [4], 0.06 OD 450 nm and 0.05 OD 450 nm; in assay [5], 0.06 OD 450 nm.
